Three molecules from patent publication US7777010 (CRUCELL HOLLAND B V, dated 2010) can be followed below.

Residue numbers refer to the chain shown, from its start.

The target of experiment [1] is T1, purified recombinant Ep-CAM produced in insect cells (UniProt P16422 24-265, limits assumed).
T1 construct: Coupled to a CM5 sensor chip by NHS/EDC; Neither the species nor the construct limits are stated at this place
T1 sequence (looked up): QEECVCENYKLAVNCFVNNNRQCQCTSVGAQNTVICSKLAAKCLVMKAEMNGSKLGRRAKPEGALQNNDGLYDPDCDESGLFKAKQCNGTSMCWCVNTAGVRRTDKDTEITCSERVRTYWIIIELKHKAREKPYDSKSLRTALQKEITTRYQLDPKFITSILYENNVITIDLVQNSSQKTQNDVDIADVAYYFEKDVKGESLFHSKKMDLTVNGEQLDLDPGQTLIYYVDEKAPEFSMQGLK
Nature of the experiment: SPR (BIAcore), recombinant Ep-CAM coupled to CM5 chip, IgG1 in flow. Here is the method: (§1) In separate BIAcore flow cells, approximately 160, 1565 and 4154 resonance units of purified recombinant Ep-CAM produced in insect cells (kindly provided by Dr. D. Herlyn, Wistar institute, Philadelphia, Pa.) (25 µg/ml) in 10 mM acetate buffer (pH 4.0) were coupled to a CM5 sensor chip using NHS/EDC coupling chemistry. Association and dissociation were measured under continuous flow of […] using a concentration range from 100 to 1 nM.
(§2) The kinetic association and dissociation rates of the original huMab UBS-54 and the mutant huMabs A37 and C52 were determined by surface plasmon resonance (Table 1). […] The improvement was mainly the result of a lower […].
A general note: SPR reads the build-up and loss of mass on a sensor chip optically.

Experiment [2] deals with T1, purified recombinant Ep-CAM produced in …. Nature of the experiment: SPR (BIAcore), recombinant Ep-CAM coupled to CM5 chip. Here is the method: as §1, §2

B1: huMab UBS-54 (antibody, V domains shown)
VH: QVQLVQSGAEVKKPGSSVRVSCKASGGTFSSYAISWVRQAPGQGLEWMGGIIPIFGTANYAQKFQGRVTITADESTSTAYMELSSLRSEDTAVYYCARDPFLHYWGQGTLVT
VL: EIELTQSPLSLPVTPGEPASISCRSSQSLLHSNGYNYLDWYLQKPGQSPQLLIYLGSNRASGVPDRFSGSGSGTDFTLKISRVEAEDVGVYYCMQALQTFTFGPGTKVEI
notes: Tested as an intact human IgG1/kappa huMab made in BHK cells (VH1 / Vk2 V regions); FITC-labelled in the spheroid experiment; also called original huMab UBS-54; original UBS-54
For orientation: Kd means the free concentration of one partner at which half of the binding sites on the other are occupied at equilibrium, for simple one-to-one binding. Broadly, the koff is a measure of how fast the partners let go of each other. In general, kon refers to a measure of how fast the partners come together. With B1, in experiment [1], the Kd came out at 6 nM, the off-rate constant (koff) came to 0.0006 s⁻¹ and the kon is 100000 M⁻¹ s⁻¹.

B2: huMab A37 (antibody, V domains shown)
VH: B1 VH
VL: EIELTQSPGTLSLSPGERATLSCRASQTISNNYLAWYQQKRGQAPRLLIYAASSRATGIPDRFSGTGSGTDFTLTISRLEPEDFAVYYCAQGELYPRQFGGGTKLEI
notes: Tested as an intact human IgG1/kappa huMab made in BHK cells; It has the UBS-54 VH with a shuffled Vk3 light chain; also called mutant A37
Regarding B2, in experiment [1], the Kd was determined as 1.6 nM, the koff was 0.00041 s⁻¹ and the kon is 250000 M⁻¹ s⁻¹. Besides, in experiment [2], the “fold increase in affinity against the original huMab UBS-54” value is about 4 fold.

B3: huMab C52 (antibody, V domains shown)
VH: B1 VH with S16A, R19K, I52V
VL: B2 VL with T28S, I29V, N31S, N32S, R41P, A51G, T66S, E106D
notes: Tested as an intact human IgG1/kappa huMab made in BHK cells; It has the B43 VH with a DNA-shuffled A37-derived Vk light chain; FITC-labelled in the spheroid experiment; also called mutant C52
On to B3, for which, in experiment [1], the Kd came out at 0.4 nM, the koff worked out at 0.00011 s⁻¹ and the kon was 270000 M⁻¹ s⁻¹. The “fold improvement of binding affinity against the original UBS-54 huMab” value in experiment [2] was determined as 15 fold.
